Residue numbers refer to the chain shown, from its start. Names and notes keep the numbering of the source.
T1: Human IL-34 (19–241) (human, UniProt Q6ZMJ4 19-241)
T1 construct: IL-34, human, residues 19-241, cloned into pHLsec; the oligomeric state was not measured here; source: Expi293F cells, secreted, purified from the media using NiNTA chromatography
T1 sequence (looked up): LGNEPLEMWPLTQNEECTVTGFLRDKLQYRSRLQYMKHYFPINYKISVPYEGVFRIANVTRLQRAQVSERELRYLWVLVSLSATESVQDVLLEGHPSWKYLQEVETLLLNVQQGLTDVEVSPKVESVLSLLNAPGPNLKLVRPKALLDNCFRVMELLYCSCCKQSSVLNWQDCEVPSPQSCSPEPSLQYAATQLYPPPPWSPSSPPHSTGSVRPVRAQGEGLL

B1: TREM2 WT (receptor, human, UniProt Q9NZC2 19-230, looked up)
chain: HNTTVFQGVAGQSLQVSCPYDSMKHWGRRKAWCRQLGEKGPCQRVVSTHNLWLLSFLRRWNGSTAITDDTLGGTLTITLRNLQPHDAGLYQCQSLHGSEADTLRKVLVEVLADPLDHRDAGDLWFPGESESFEDAHVEHSISRSLLEGEIPFPPTS
modifications: biotin on the C-terminal BirA biotinylation sequence
notes: TREM2, human; also called triggering receptor expressed on myeloid cells-2; source: Expi293F cells, purified, enzymatically biotinylated using BirA
B2: TREM2 R62H (receptor, human, UniProt Q9NZC2 19-230, looked up)
chain: B1 chain with R44H
modifications: biotin on the C-terminal BirA biotinylation sequence
notes: TREM2, human, AD risk variant; As m1 with the substitution; source: Expi293F cells, purified, enzymatically biotinylated using BirA
B3: TREM2 D87N (receptor, human, UniProt Q9NZC2 19-230, looked up)
chain: B1 chain with D69N
modifications: biotin on the C-terminal BirA biotinylation sequence
notes: as for B2
B4: TREM2 R47H (receptor, human, UniProt Q9NZC2 19-230, looked up)
chain: B1 chain with R29H
modifications: biotin on the C-terminal BirA biotinylation sequence
notes: as for B2
B5: TREM2 T96K (receptor, human, UniProt Q9NZC2 19-230, looked up)
chain: B1 chain with T78K
modifications: biotin on the C-terminal BirA biotinylation sequence
notes: as for B2
B6: TREM2 R76D (receptor)
chain: HNTTVFQGVAGQSLQVSCPYDSMKHWGRRKAWCRQLGEKGPCQRVVSTHNLWLLSFLDRWNGSTAITDDTLGGTLTITLRNLQPHDAGLYQCQSLHGSEADTLRKVLVEVLADPLD
modifications: biotin on the C-terminal BirA biotinylation sequence
B7: TREM2 T85D (receptor)
chain: B6 chain with D58R, T67D
modifications: biotin on the C-terminal BirA biotinylation sequence
B8: TREM2 L75D (receptor)
chain: B6 chain with L57D, D58R
modifications: biotin on the C-terminal BirA biotinylation sequence
B9: TREM2 R122D/K123D (receptor)
chain: B6 chain with D58R, R104D, K105D
modifications: biotin on the C-terminal BirA biotinylation sequence
B10: TREM2 R122E (receptor)
chain: B6 chain with D58R, R104E
modifications: biotin on the C-terminal BirA biotinylation sequence
B11: TREM2 W78D (receptor)
chain: B6 chain with D58R, W60D
modifications: biotin on the C-terminal BirA biotinylation sequence
B12: TREM2 W44D/L69D/L71D (receptor)
chain: B6 chain with W26D, L51D, L53D, D58R
modifications: biotin on the C-terminal BirA biotinylation sequence
B13: TREM2 L69D/L71D (receptor)
chain: B6 chain with L51D, L53D, D58R
modifications: biotin on the C-terminal BirA biotinylation sequence
B14: TREM2 R46D (receptor)
chain: B6 chain with R28D, D58R
modifications: biotin on the C-terminal BirA biotinylation sequence
B15: TREM2 R77D (receptor)
chain: B6 chain with D58R, R59D
modifications: biotin on the C-terminal BirA biotinylation sequence

Columns and labels:
[1] = target: T1, Human IL-34 (19–241); assay: BLI; biotinylated TREM2 WT and variants immobilised on SA biosensors; IL-34 62.5 – 1000 nM in PBS with 0.1% BSA and 0.005% Tween-20; 1:1 kinetic fits; details: both partners purified
[2] = target: T2, complement C1q; assay: BLI; biotinylated TREM2 WT and variants immobilised on SA biosensors; C1q 62.5 – 1000 nM in PBS with 0.1% BSA and 0.005% Tween-20; 1:1 kinetic fits; details: both partners purified
T2 construct: source: bought: Complement Technology (Cat#A099); copies: 6 + 6 + 6

| Binder | Kd [1] [nM] | Kd [2] [nM] |
| --- | --- | --- |
| B1 | 16.5 ± 0.2 |  |
| B2 | 75 |  |
| B3 | 28.4 ± 0.5 |  |
| B4 | 79.8 ± 2.4 |  |
| B5 | 23.7 ± 0.4 |  |
| B6 |  | 13800 ± 4860 |
| B7 | 21.5 ± 0.6 | 110 ± 10 |
| B8 | 36.6 ± 0.9 | 110 ± 10 |
| B9 | 18.5 ± 0.3 | 820 ± 40 |
| B10 | 29.4 ± 0.4 |  |
| B11 | 17.2 ± 0.4 |  |
| B12 | 25.8 ± 0.3 |  |
| B13 | 20.2 ± 0.3 |  |
| B14 | 18 ± 0.3 |  |
| B15 | 114 ± 4 |  |
